In article PMC6160412, “Structural insights into modulation and selectivity of transsynaptic neurexin–LRRTM interaction” (Nature Communications, 2018):

T1: human LRRTM2 LRR domain, wild type (human, UniProt O43300 34-371)
T1 construct: signal peptide in the construct; human LRRTM2 LRR domain, residues 1-371 cloned (residues 34-371 are named for the crystallised protein); Secreted with its own signal peptide; the mature protein probably begins at residue 34, as in the crystallised protein; also called LRRTM2^WT; hLRRTM2; source: Expi293F, transiently expressed, purified from culture medium (Ni-NTA, SEC)
T1 sequence (looked up): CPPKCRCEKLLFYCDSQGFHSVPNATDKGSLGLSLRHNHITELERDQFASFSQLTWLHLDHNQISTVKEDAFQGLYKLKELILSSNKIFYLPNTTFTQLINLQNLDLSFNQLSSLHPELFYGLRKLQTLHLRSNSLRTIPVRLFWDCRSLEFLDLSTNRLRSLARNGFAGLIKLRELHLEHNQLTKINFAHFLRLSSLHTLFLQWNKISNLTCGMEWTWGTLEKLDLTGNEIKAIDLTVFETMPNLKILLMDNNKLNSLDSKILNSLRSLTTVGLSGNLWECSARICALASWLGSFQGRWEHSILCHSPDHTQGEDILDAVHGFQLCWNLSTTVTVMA

T2: human LRRTM2 LRR domain, H355A mutant (human, UniProt O43300 34-371, H355A)
T2 construct: signal peptide in the construct; human LRRTM2 LRR domain, residues 1-371 cloned, with H355A; Neuraminidase was added before crystallization to trim N-linked glycans; also called LRRTM2^H355A; hLRRTM2^H355A; source: Expi293F, transiently expressed, purified from culture medium (Ni-NTA, SEC); for crystallization coexpressed with Nrxn1β (–S4) LNS and separated by SEC
T2 sequence (looked up): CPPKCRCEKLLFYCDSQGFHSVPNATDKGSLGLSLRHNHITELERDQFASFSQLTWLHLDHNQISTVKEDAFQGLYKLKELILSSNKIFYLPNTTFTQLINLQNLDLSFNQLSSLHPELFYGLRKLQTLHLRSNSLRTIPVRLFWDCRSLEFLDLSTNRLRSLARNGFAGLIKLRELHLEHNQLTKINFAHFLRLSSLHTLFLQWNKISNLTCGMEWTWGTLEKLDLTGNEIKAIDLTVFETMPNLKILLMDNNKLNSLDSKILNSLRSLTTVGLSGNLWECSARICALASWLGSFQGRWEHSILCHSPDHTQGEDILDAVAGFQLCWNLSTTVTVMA

T3: human LRRTM2 LRR domain, D352A mutant (human, UniProt O43300 34-371, D352A)
T3 construct: signal peptide in the construct; human LRRTM2 LRR domain, residues 1-371 cloned, with D352A; also called LRRTM2 D352A; source: Expi293F, transiently expressed, purified from culture medium (Ni-NTA, SEC)
T3 sequence (looked up): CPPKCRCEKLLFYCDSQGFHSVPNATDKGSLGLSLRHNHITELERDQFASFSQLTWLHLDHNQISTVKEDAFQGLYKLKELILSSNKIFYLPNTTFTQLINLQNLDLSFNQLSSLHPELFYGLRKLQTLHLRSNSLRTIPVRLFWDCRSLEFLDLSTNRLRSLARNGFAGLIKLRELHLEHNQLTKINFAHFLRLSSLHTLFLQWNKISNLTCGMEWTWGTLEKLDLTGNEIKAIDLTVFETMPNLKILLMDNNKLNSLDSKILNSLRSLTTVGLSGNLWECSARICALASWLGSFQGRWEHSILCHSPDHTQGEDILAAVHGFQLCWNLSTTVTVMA

T4: human LRRTM2 LRR domain, F357Y mutant (human, UniProt O43300 34-371, F357Y)
T4 construct: signal peptide in the construct; human LRRTM2 LRR domain, residues 1-371 cloned, with F357Y; also called LRRTM2^F357Y; source: Expi293F, transiently expressed, purified from culture medium (Ni-NTA, SEC)
T4 sequence (looked up): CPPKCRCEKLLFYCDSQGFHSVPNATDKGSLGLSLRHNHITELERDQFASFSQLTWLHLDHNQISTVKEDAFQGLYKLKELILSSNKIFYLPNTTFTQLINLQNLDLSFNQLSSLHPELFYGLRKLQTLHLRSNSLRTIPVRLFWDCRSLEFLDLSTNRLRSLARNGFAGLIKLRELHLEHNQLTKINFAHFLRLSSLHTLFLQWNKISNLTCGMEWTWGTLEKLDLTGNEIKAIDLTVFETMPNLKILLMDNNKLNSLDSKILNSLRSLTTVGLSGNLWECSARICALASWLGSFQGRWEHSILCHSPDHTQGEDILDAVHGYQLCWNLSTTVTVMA

B1: human Nrxn1β LNS domain (–S4), wild type (domain or fragment)
chain: not shown
notes: human neurexin-1β LNS domain, splice variant without the S4 insert, residues 86-266; numbers count on: human Nrxn1β (–S4) (NM_001330092.1); also called Nrxn1β (–S4); Nrxin1β (–S4); source: Expi293F, transiently expressed, purified from culture medium (Ni-NTA, SEC); for crystallization coexpressed with LRRTM2 LRR and separated by SEC
B2: human Nrxn1β LNS domain (–S4), R206A mutant (domain or fragment)
chain: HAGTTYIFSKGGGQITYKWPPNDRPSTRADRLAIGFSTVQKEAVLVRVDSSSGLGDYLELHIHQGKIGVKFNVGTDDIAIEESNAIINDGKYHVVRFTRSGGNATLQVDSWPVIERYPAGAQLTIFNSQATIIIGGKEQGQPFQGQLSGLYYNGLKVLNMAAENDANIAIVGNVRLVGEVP
modifications: Ca2+-bound (2 mM CaCl2). Entry P58400 carries the S4 insert at 205-234, so paper (-S4) residues 205-266 are entry 235-296 (R206 = R236).
B3: human Nrxn1β LNS domain with the S4 insert (+S4) (domain or fragment)
chain: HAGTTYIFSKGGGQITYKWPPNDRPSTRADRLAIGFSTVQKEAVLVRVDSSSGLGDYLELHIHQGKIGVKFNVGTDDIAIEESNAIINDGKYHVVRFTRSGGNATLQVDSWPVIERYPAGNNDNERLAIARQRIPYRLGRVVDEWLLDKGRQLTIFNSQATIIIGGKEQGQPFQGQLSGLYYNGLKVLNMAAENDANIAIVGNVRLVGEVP
modifications: Ca2+-bound (2 mM CaCl2). S4 insert is entry residues 205-234.

Legend:
Settings in all cases: both partners purified
[1] = target: T1, human LRRTM2 LRR domain, wild type; assay: ITC; MicroCal Auto-iTC, 25 °C; LRRTM2 (15 µM) in the cell, Nrxn1β (200 µM) injected; 20 mM Hepes-NaOH pH 7.5, 150 mM NaCl, 2 mM CaCl2, 0.005% Tween-20, no BSA; one-site model
[2] = target: T1, human LRRTM2 LRR domain, wild type; assay: SPR; Biacore T200; wild-type or mutant LRRTM immobilised on a CM5 chip by amine coupling; Nrxn1β as analyte in two-fold dilutions from 40 µM (from 160 µM for +S4 and R206A); 25 °C; 20 mM Hepes-NaOH pH 7.5, 150 mM NaCl, 2 mM CaCl2, 0.005% Tween-20, 0.5 g/L BSA; equilibrium KD
[3] = target: T2, human LRRTM2 LRR domain, H355A mutant; assay: as above
[4] = target: T3, human LRRTM2 LRR domain, D352A mutant; assay: as above
[5] = target: T4, human LRRTM2 LRR domain, F357Y mutant; assay: as above

Row | Kd [1] [µM] | Kd [2] [µM] | Kd [3] [µM] | fold decrease in affinity against wild-type LRRTM2 [4] [fold] | fold decrease in affinity against wild-type LRRTM2 [5] [fold] | Binder
1 | 4.2 | 4 | 4.3 | > 9 | ~5 | B1
2 | – | > 160 | – | – | – | B2
3 | – | > 80 | – | – | – | B3
